Data on six substances can be found in publication PMC5458344.

The target in assay [1] is GST-lamin A (amino acids 356–665, containing nesprin-1/2 binding domain) (UniProt P02545). The assay is described as follows: reverse GST pull-down with western blot densitometry. The settings on record: lysates of U2OS cells transfected with GFP-nesprin-1α2 WT or mutant; three independent experiments, mean ± SEM; parent: est. 1.0; read off a plot. In general terms: In western blotting, separated proteins are transferred to a membrane and probed.

The target of assay [2] is GST-emerin (amino acids 1–176, lacking the TM domain) (UniProt P50402). Described as above. The settings on record: lysates of U2OS cells transfected with GFP-nesprin-1α2 WT or mutant; three independent experiments, mean ± SEM; parent: est. 1.0; read off a plot.
Assay [3] addresses lamin A/C (endogenous, U2OS lysate; lamin A and lamin C bands quantified together). The assay is described as follows: GST pull-down with western blot densitometry. The settings on record: U2OS cell lysate; three independent experiments, mean ± SEM; parent: est. 1.0; read off a plot.
For another assay, the target named is Myc-SUN2 (full length) (UniProt Q9UH99). The assay is described as follows: GST pull-down with western blot densitometry. To be noted: lysate of U2OS cells transfected with Myc-SUN2 (full length); three independent experiments, mean ± SEM; parent: est. 1.0; read off a plot.
In a further assay the target is emerin (endogenous) (UniProt P50402). The assay is described as follows: GST pull-down with western blot densitometry. The settings on record: U2OS cell lysate; three independent experiments, mean ± SEM; parent: est. 1.0; read off a plot.

Sequence of UniProt P02545 (P02545 356-664): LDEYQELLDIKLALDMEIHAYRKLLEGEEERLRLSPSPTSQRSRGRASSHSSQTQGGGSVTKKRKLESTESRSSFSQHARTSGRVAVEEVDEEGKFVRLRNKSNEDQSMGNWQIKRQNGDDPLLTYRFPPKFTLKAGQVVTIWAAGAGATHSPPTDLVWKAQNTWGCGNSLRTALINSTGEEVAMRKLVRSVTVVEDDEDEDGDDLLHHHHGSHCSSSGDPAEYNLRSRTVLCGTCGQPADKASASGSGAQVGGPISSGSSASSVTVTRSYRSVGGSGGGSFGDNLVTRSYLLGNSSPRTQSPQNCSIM
Sequence of UniProt Q9UH99 (Q9UH99 whole entry): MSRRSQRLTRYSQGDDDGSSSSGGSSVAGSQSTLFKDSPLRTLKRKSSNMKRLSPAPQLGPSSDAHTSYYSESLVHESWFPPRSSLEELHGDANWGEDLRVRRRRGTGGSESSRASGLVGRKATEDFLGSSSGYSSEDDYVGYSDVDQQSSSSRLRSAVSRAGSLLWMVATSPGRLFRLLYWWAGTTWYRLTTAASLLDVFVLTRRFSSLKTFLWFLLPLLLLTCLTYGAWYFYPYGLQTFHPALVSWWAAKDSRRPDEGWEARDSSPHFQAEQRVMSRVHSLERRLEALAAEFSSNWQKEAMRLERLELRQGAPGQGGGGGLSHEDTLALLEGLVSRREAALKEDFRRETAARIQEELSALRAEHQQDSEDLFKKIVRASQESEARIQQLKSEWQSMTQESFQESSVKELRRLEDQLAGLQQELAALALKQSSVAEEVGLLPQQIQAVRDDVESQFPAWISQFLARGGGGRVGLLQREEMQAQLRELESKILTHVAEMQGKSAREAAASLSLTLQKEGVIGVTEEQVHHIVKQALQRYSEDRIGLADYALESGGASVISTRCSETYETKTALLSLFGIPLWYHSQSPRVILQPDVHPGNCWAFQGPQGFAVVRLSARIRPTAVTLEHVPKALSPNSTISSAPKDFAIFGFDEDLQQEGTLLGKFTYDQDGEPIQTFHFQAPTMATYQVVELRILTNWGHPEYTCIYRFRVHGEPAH

Take GFP-tagged nesprin-1α2 WT R8272Q: the ratio to parent turned out to be 0.33 in assay [1] and 1.1 in assay [2].

Take “GST-tagged WT nesprin-1α2 SR1-6 (lacking KASH domain) N8406K”: the ratio to parent in assay [3] was 0.17; with Myc-SUN2 (full length) it was 0.15; with emerin (endogenous), 1.2.

In the case of “GST-tagged WT nesprin-1α2 SR1-6 (lacking KASH domain) R8272Q”, the values for the ratio to parent (in assay [3]; in the assay with Myc-SUN2 (full length); with emerin (endogenous)) were 0.18, 0.25 and 1, respectively.

“GST-tagged WT nesprin-1α2 SR1-6 (lacking KASH domain) S8381C”: the ratio to parent was found to be 0.12 in assay [3], 0.19 with Myc-SUN2 (full length) and 0.87 with emerin (endogenous).

For the substance GFP-tagged nesprin-1α2 WT N8406K, the ratio to parent in assay [1] is 0.31; in assay [2], 1.1.

In the case of GFP-tagged nesprin-1α2 WT S8381C, the results for the ratio to parent in assay [1] and in assay [2] were 0.17 and 0.93, respectively.
